Consider 19 sequences from the DeepSol protein solubility set.

This data set is described as follows: soluble on expression in E. coli; label from the status in PepcDB or PDB records.
Consider “AIAQSRKQLPITNAVIHPVVLLGIVDHYNRACKNTRKRAVGILLGTIDRRGHAEVLNSFAVPFEEDERNPTVFFFDHDYVENMAAMFRKVTARERIIGWYSTGPQIRPADMGVHEIVQGFCSSGHALYVICQVDPKETGLPTEAYVSLEEDSVALEGSAPGQPRRIFEHVPNSIGALEAEEVGTEHLLRDVRNWSVSTLTGEVRAKLDALQSLRARLENIRRYLEEVASGNLPLHQEILHALQLVLKGLPRNAASSELTQAFAVCSNEQTLLIYVATLLRSVLVLHDLVNNKTELLETERKMEVAFSNATTAMDAPGSPTVADSL”, for which the “soluble on expression in E. coli” value is “soluble”.

In the case of “MAHHHHHHMDDRDAELDIDEDGIFTCEEVNALTSAMWKAEGLTRVPRSRRHHRQAPPQQRTSAAAVDSLQPGPLAASTTTPGGGSVTDVTLQPLLNTTGEDGGHRSLGGDIRGLPSSFSNAPLFASATTTAAGLSSTSSPQPTSQALHHHHNDVDRQLGGNSNTSGRRMAGGGGSVGGEGSRSSSSVYEVLIQRVLAMDTASDIWSLGVLLYGMCADTADAQQQEEQQQHQASASTTTPTLNPPHATAAGSSPVRAHEGVAGTLPPAMPTCTCASRLAQRAFAALLGDLYDLAVTGVPSGDRGNNGWSCDGVDVEQLDEAADDHLRWPRSCALEEEVMQAIGEAGYTHVFASVLASMLSPVAARRPSAGDIVNQLRLVTTGAPATLASNIMRGGGGGLADADDEYSVARQSPPPRIQHSGGASDATSSVMLHEQTACMALRQR”, the “soluble on expression in E. coli” value is recorded as “not soluble”.

On to “MRRGPARAAALHRAFSLHGKIAAMQRPASSSLPPLDPAASAHSASVARHLRAAIAAAGGWLPFSQWMSAALYAPGLGYYTAGATKLASPADAQGPALPAGDFVTAPELTPLFAATVARQIAQVLRATDTASVLEFGAGTGALAEGVLRALAGLDCPARYLIVEVSADLRQRQQSRLAPFGDRVQWLDQLPDAFAGCVLGNEVLDAMPATLFRWSETGVVQERGVTVDANGEFAWQDRDADAPLAQAVAQRMPPLPGYVSEINLQAEAWVRSMGLWLQRGAALLLDYGFPRSEYYHPQRAGGTLMCHLRHHAHADPFAAPGLQDITSHVDFTAMADAALAGGLQVLGYLSQARFLVNAGLLDALSQLDPADARAYAQAVAPVQKLLSEAEMGELFKVLAVGRDMPEPLLGFARGDRRGTL”, for which the “soluble on expression in E. coli” value is given as “not soluble”.

In the case of “YAGTSDAPYTGGFMNTFNYRNWELNLNFSYNLGAHVKTDPTYYIADPDPGRNMNRDILDRWTPENKNGKFPALTSLNTNPADYYLFSTRRDLYKSLDIWVKKLSYIRLQNIRLAYHFPSEWLHKLNIGGATVGLEARNLFVFGSSYKNYMDPESMSNLYSTPVPKSVTFNLSLNF”, the “soluble on expression in E. coli” value is on record as “not soluble”.

As to “MNLEKLEVSHDADSLCVVIEISKHSNIKYELDKESGALMVDRVLYGAQNYPANYGFVPNTLGSDGDPVDALVLSDVAFQAGSVVKARLVGVLNMEDESGMDEKLIALPIDKIDPTHSYVKDIDDLSKHTLDKIKHFFETYKDLEPNKWVKVKGFENKESAIKVLEKAIKAYQG”, the “soluble on expression in E. coli” value was “soluble”.

For “MSLIVKFCGFKTESDIKKIKKLEVDAVGFIHYPDSKRHVSLKQLKYLAKIVPDHIEKVVVVVNPQMSTIKRIINQTDINTIQLHGNESIQLIRNIKKLNSKIRIIKAIPATRNLNNNIQKYKDEIDMFIIDTPSITYGGTGQSFDWKLLKKIKGVDFLIAGGLDFEKIKRLEIYSFGQCGYDISTGIESHNEKDFNKMTRILKFLKGDEGHHHHHH”, the “soluble on expression in E. coli” value is “not soluble”.

Turning to “MGSDKIHHHHHHMVGIVLASHGNFAEGIYQSAEMIFGKQQNVQTVTLSPNEGPEDFLNKLKQAIDSFDDQKQVLLLIDLWGGTPFNQSSGLLSGHEDSWAVVTGMNLPMVIEAYGSRSSMDSAQEIATHIIETGKDGIRIKPESLEPKKATATVKSSGQPHGTIAPGTVLGDGKIKYVLARVDSRLLHGQVAMSWTKSTNPNRILVVSDSVAKDRLRKSMIVEAAPPGVNTNVIPIKKMIEVAKDPRFGNTKALVLFENPEDALKTIEGGVDIKELNIGSMSHAVGKVAVNKVLSLGKEDVEAFDGLKKLGVKFDVRKVPGDSSENMDNIVIKLEKIYQVLNLKKIRRV”, the “soluble on expression in E. coli” value is listed as “not soluble”.

In the case of “MSLINFGIIGAGNIANRFADSLSHFKDANLYAVACRGIEKAAAFQRKHPCQLIYDDYDELLSNKDIDIVYIAVPHGFHYLWISKALKKGKAVLCEKPATLNAEQMKSVQKLAEAKNIFFMEAMKSRFTPAYQEIKTIINNGEIGKIISIDSSFCREISKKTATYHFQPIQGGCLLDIGIYNVALTEDFAKTLPKVEVLENKMDISGVESYTKAKLLFPNLSATIECAFDRNKQTEATIKGEKGQIEIKNFHRAESFIVKTSSGTKNYHIAYEQDDFHGEIAHVIQCYGKNKTESNNMPISDSVNCALIIEKIKNQIPELAEGHHHHHH”, the “soluble on expression in E. coli” value is reported as “soluble”.

As for “MTNFIDRRLNSKNKSTVNRQRFLRRYKNQIKKSVSDAINQRGVTDIDSGESIVIPNRDLSEPTFHQGDGGVKDRVHPGNDQFSTGDRIPRPPKQQGQGGGQGDASDSGEGEDDFTFSISKEEYLNLLFEDLELPNLERNQLDKLIEYKTVRSGFCAEGVASNIDIVKSLQGSIARRIAMTASKRKQIKVLELELQALNNDKHDNIQRKRDLIAEIETLKNKISKVPFIDTFDLRFRNYAKQAVPTSKAVMFCLMDVSGSMDQATKEMAKRFYILLYLFLSRTYKNIDVVYIRHHTQAKEVDEHEFFYSQETGGTIASSALELMNDIITERYNDNQWNIYGAQASDGDNWADDSPRCQALLEQQILPKSRYFSYIEITQRAHQTLWKHYQQVEESHTNFAMQHIKSVADIYPVFRKFFKKNTKSAALEHHHHHH”, the “soluble on expression in E. coli” value is “soluble”.

Turning to “MRNFANYHVDVRRHTSGVVKTICEQCLPTRHNKRDRSLRVNIDTGHCHCYHCGADFYVPDDAEERAKAERQAARKRRAASAVPQHFHRPVFDASKTTLSEATERWLVETRCIPQSVIAGLRITEQEEFMSQSGTKERCVCFNYFEDGKLVNTKFRSGAKNFKMVQGAELIPYNIDSVLGQDTCIIHEGELDAASSLATGFKSVISVPAGANANLSWLDRFMESHFENLKDIIIAVDTDSAGLKLRDELVNRLGAERCRVAVYGPGCKDANEHLVKYGIDSLRIAIEQAEEIPLEGIFTAADLHEDLRALFDNGFGPGAETGWEEMDKICTYERRRLVIVTGIPGAGKSEWLDELVLRLCMRHQWKIAFFSPENNPIVYHLRKLIEKLTGRRFQNGCGMTEGLLLRSEEFLAENVCHIALKGSATPERVLAKARELVLRRGCRIFVFDPVNRFEHTPAPGQSETQYLSNFLNLFTEFATQYNCLVILVAHPRKMNRNPVTNHTPRPDMYDVNGSADFFNKADYGLVVERDKEVGVTRVYVEKVKFKHLGTGGVATFVYDPVSGRYLPCEESQDPSVPPEQRVRNTVNDSSCWLPEKELFE”, the “soluble on expression in E. coli” value is reported as “not soluble”.

In the case of “MLEKHWSKSLVDSFESSKNKPSNLNGKKYILSMFPYPSGRLHIGHMRVYTISDATARYYRLNGYEVIHPIGWDSFGLPAENAARDKGVDPREWTINNIESMKQQLLKTKILFDWEKEISTCEPEFFRWTQWIFCKLFEYGLVKRTSSEVNWDPIDKTVLAAEQIDNDGKSWRSGAKAEKKKLSQWMIETPKYAKRLQEGLRKMSEQWGEVADIQANWIGKCDVYRFMLPVMKDGSNDEIIDLRIKDIFEISNAEFLVLKQSHSLADKDATQFPYKLPFQVLNGVTGRQIPVIVVEDTYQPDVTSFLNSRIGNFQKDKILVEKFAIAEPKHKRKLTKNDIQEMASFGGYGGYETSRTLTDWVVSRQRGWGTPIPMIQTKDGKRVAVQLNKLPVLGSDRGQEVDKERFGESGVFDTDTLDTFFDSAWYYLRYLDNKNKSELISKGAMKNMPVDVYVGGIEHAAVHMFFARFVAYFLKDINVIQTAEPFTDLIPQGIVRGKTFIEKETGKYLGSEDVQQSGDKLTLKNDSSVEVDAVYEKMSKSKNNGVDLAAILDSEGVDMTRLRLLEAAAPRAPINWGETDLKGIKKLLDRIAAINSQIVDARDNGKPIELKKEIDGSIKETYNFFVRNVGMCLEVLHLHNTALMRIQGFTNALKKVDPIYLAHSPEGQRAVKSLIIMLQVFCPHVASEMWSALANDGSLVSDQKWPEVDKDADIEFLLMIDGVSGGRPSLDRRIIEEMSMDQLWERATFYEHADILRMMKEDGMKLKNSSYISRKGFHVTLSCSLEGDKEENRKKIGKILDRIQAEKRKLEIGKKGGKRKKEKKIVNK”, the “soluble on expression in E. coli” value is given as “not soluble”.

“MRPMPTDDINSRIAELEADNRRLRQLLDKRDAPGELRHRLRSTVAMLRTIIRKSASKRHSLDTYVGHLEDRLDALMRAQAIADEQGAIDFHKLLADELLHYQARDGERVTFAGPDLHLQARAGQVLALAVHELAVNAVEHGALGGDGTIDIRWSVAGAGPAPLLTFVWKETDTAPVAEPSHHGFGTEVLTRTLEYELKAKTDLAFEPDGLRCTIRFPLSERVDGSQAG”: the “soluble on expression in E. coli” value was “not soluble”.

Regarding “EKEKDTIAAEHKQEASVLLNLHRNKINYLIGETMARMTSLSIAIDRPVDIKKMQSILEKTFDSEPRFSGLYFLNAKGDVTASTTELKTKVNLADRSFFIKAKETKKTVISDSYSSRITGQPIFTICVPVLDSKRNVTDYLVAAIQIDYLKNLINLLSPDVYIEVVNQDGKMIFASGQASHAEDQKPVSGYLDDISWNMKVYPNPVTIEELSKSL”, the “soluble on expression in E. coli” value is recorded as “soluble”.

Take DCYCRIPACIAGEAAYGTCIYQGALWAFCC: the “soluble on expression in E. coli” value is on record as “soluble”.

For the sequence “MGHHHHHHSHMHGWTWSVPKFMKRMKVPDYKDKAVFGVPLIVHVQRTGQPLPQSIQQALRYLRSNCLDQVGLFRKSGVKSRIHALRQMNENFPENVNYEDQSAYDVADMVKQFFRDLPEPLFTNKLSETFLHIYQYVSKEQRLQAVQAAILLLADENREVLQTLLCFLNDVVNLVEENQMTPMNLAVCLAPSLFHLNLL”, the “soluble on expression in E. coli” value was “not soluble”.

As to “GSMDQNTTEPVAATETLAEVPEHVLRGLPEEVRLFPSAVDKTRIGVWATKPILKGKKFGPFVGDKKKRSQVKNNVYMWEVYYPNLGWMCIDATDPEKGNWLRYVNWACSGEEQNLFPLEINRAIYYKTLKPIAPGEELLVWYDGEDNPEIAAAIEEERASARS”, the “soluble on expression in E. coli” value is “soluble”.

On to “MGSDKIHHHHHHMENKVKTVAVFSGYYLPFLGGIERYTDKMTADLVKRGYRVVIVTTNHGDLPIIDEDKGRKIYRLPTKNIVKQRYPIINKNREYNTLMKYVSDENIDFVICNTRFQLTTLEGLSFAKNHHLPSIVLDHGSSHFSVNNRFLDFFGAIYEHLLTARVKHYRPDFYAVSKRSVEWLKHFNIEAKGVIYNSVSESLGSDFAGTAYLEKSADDIFITYAGRIIKEKGIELLLEAFSMSQYSENVYLQIAGDGPELAHLKEKYQSKQINFLGKLNFEQTMSLMAQTDIFVYPSMYPEGLPTSILEAGLLSSAIIATDRGGTVEVIDSPELGIIMEENTQSLHESLDLLVKDKALREKLQQNIAKRIKEHFTWEKTVEKLDYIIQKN”, for which the “soluble on expression in E. coli” value is recorded as “not soluble”.

For “MGSDKIHHHHHHNSISDSEVHVMVKTFEGHHVNRLEVLKNTWASDVSRIEYCSDKEDPAIPTINLGVDNTDRGHCAKTWEIFRRFLGSSGNGAKWLVVADDDTLMNFKRLKQMLELYDSGDKIIIGERYGYGFSLNGDSGYDYPTGGSGMIFTRSAVESLLAQCPSCIANTDPDDMTIGICALTAGIPIVHESRLHQARPLDYAPEYIKYPISFHKFTDIDPISVYYEYLVELEEYN”, the “soluble on expression in E. coli” value is on record as “not soluble”.

For the sequence “MNLFEYKLSVVRQVMDKYEVAEEAKFISGLSKGSMVNALSRKKKLPNKEAKFTRYVIYTVDVERIIDMMEEPYRTVIKKRYYDASLDTVKKDFGLQNKREAYFLVKKSVNKFYDLLENYWK”, the “soluble on expression in E. coli” value was “not soluble”.
